The source of these data is patent US20080064048A1, “Methods for Selecting Proteins that are Readily Presented as Antigens on Dendritic Cells” (Medical and Biological Laboratories, Co., Ltd., priority 2004, published 2008).

Data set [1] addresses T1, Sec61α (Mus musculus, UniProt P61620).
T1 construct: endogenous in cells; host or cells: DC2.4 mouse dendritic cell line
Briefly: Co-immunoprecipitation of bOVA with anti-Sec61α. It is filed as binding. The conditions noted are these: DC2.4 cells incubated with bOVA. As to the method:
(§1) 2×10^7 DC2.4 or BMDC cells were cultured for four hours in a medium containing 10 μM MG-132 in the presence of bOVA at 250 μg mL^−1. Cells were lysed in 20 mM HEPES pH7.6 containing 1% digitonin and protease inhibitors to collect biotin-labeled samples. The samples were cleared of impurities in advance using protein G sepharose (Amersham Pharmacia Biotech), and after incubation with antibodies for precipitation (anti-Sec61β, anti Sec61α, anti-VCP, anti-BiP, anti-PDI, anti-calreticulin, anti-TAP1, and anti-TAP2), the immunoprecipitates were collected using protein G. When chicken anti-CHIP antibody was used, immunoprecipitates were collected using a rabbit anti-IgY column (a person, MBL). The precipitated samples were analyzed by SDS-PAGE and Western blotting.

Data set [2] deals with T2, Sec61β (Mus musculus, UniProt Q9CQS8).
T2 construct: endogenous in cells; host or cells: DC2.4 mouse dendritic cell line; bone marrow-derived dendritic cells
T2 sequence (Q9CQS8 2-96 limits assumed): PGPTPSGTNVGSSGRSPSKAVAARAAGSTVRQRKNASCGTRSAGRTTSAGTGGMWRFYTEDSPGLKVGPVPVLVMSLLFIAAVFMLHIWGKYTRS
T2 sequence (P61620 whole entry partner): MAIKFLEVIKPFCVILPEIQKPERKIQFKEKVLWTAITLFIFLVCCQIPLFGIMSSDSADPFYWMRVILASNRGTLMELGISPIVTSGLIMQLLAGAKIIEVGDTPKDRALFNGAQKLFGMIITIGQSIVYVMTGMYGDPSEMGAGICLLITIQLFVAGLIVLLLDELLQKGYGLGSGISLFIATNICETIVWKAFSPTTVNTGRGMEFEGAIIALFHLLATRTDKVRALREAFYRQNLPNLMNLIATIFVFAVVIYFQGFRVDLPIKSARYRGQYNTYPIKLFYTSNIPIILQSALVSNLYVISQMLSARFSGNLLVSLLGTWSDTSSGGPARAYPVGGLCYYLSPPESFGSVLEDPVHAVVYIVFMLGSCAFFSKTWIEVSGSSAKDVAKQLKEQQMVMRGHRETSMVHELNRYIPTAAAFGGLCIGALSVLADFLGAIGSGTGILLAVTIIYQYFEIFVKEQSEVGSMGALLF
T2 sequence (P60060 whole entry partner): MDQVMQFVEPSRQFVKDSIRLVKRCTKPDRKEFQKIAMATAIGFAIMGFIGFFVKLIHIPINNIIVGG
The data set can be described thus: Co-immunoprecipitation of bOVA with anti-Sec61β. It is filed as binding. How it is done: as §1

Data set [3] deals with T3, PDI (Mus musculus, UniProt P09103).
T3 construct: Three types of ER resident proteins; endogenous in cells; host or cells: DC2.4 mouse dendritic cell line
T3 sequence (P09103 20-509): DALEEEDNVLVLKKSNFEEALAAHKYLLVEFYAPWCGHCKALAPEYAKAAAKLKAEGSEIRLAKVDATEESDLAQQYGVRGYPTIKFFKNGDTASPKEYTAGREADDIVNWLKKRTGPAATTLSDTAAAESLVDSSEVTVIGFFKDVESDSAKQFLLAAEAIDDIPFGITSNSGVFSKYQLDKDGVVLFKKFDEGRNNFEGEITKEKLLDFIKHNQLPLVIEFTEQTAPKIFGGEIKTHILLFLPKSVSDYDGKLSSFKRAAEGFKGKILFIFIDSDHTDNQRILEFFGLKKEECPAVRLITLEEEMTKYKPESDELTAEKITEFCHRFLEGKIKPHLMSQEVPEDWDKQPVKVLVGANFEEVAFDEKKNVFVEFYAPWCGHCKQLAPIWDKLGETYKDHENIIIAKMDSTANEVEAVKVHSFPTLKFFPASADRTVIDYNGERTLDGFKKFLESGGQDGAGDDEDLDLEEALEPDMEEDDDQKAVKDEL
The data set can be described thus: Co-immunoprecipitation of bOVA with anti-PDI. It is filed as binding. The conditions noted are these: DC2.4 cells incubated with bOVA. As to the method:
as §1

The target of data set [4] is T4, TAP1 (Mus musculus, UniProt P21958).
T4 construct: endogenous in cells; host or cells: DC2.4 mouse dendritic cell line
T4 sequence (P21958 1-724): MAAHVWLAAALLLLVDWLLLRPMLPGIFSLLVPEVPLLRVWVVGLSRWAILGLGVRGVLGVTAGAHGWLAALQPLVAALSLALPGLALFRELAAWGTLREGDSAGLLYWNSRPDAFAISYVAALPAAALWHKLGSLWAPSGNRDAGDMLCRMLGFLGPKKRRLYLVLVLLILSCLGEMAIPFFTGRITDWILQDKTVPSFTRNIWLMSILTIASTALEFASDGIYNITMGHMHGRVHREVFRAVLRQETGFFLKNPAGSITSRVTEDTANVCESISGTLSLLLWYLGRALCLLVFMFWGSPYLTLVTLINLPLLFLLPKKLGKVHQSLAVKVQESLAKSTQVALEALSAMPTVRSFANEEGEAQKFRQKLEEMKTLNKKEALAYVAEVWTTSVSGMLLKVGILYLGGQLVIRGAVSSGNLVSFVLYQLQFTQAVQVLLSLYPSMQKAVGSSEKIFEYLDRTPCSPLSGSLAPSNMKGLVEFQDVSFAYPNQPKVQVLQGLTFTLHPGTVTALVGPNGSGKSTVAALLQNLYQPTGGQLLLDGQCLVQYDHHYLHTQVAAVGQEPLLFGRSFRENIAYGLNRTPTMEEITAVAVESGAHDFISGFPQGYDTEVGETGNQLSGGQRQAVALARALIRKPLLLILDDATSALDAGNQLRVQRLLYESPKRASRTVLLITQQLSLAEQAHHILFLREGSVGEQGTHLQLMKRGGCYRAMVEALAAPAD
Briefly: Co-immunoprecipitation of bOVA with anti-TAP1. To be noted: DC2.4 cells incubated with bOVA. Format: binding. How it is done: as §1

Data set [5] relates to DC2.4 cells. The data set can be described thus: Polyubiquitination of antigen taken up by DC2.4 cells (Western blot, anti-polyubiquitin antibody). Format: cell-based, mouse. To be noted: CHIP-knocked-down DC2.4 (C4) vs parental DC2.4.
The subject of data set [6] is DC2.4 cells. Briefly: Uptake of antigen into DC2.4 cells. Format: cell-based, mouse. To be noted: CHIP-knocked-down DC2.4 (C4 and C4F-1). An excerpt:
When CHIP-knocked-down DC2.4 cells (C4 and C4F-1) were produced to examine the polyubiquitination of bOVA when CHIP is knocked down, the uptake of bOVA into the CHIP-knocked-down DC2.4 cells was only about 70% that of uptake into the parental DC2.4 cells (FIGS. 4d and 4f). Despite this fact, polyubiquitination of bOVA was reduced to 34% in CHIP-knocked-down cells (FIG. 4f). The decrease in the amount of accumulated OVA was slowed down in CHIP-knocked-down cells (FIGS. 4d and 4e).
Next, DC2.4 cells were incubated for a set amount of time with OVA in the presence or absence of lactacystin (LC), and OVA taken up into the cells was measured. OVA taken up into cells in the presence or absence of Hsp90 was measured similarly.

T1 sequence (P61620 whole entry): as the sequence (P61620 whole entry partner) above
T1 sequence (Q9CQS8 2-96 partner limits assumed): as the sequence (Q9CQS8 2-96 limits assumed) above
T1 sequence (P60060 whole entry partner): as the sequence (P60060 whole entry partner) above

B1: bOVA: biotin-labeled OVA antigen (protein)
chain: GSIGAASMEFCFDVFKELKVHHANENIFYCPIAIMSALAMVYLGAKDSTRTQINKVVRFDKLPGFGDSIEAQCGTSVNVHSSLRDILNQITKPNDVYSFSLASRLYAEERYPILPEYLQCVKELYRGGLEPINFQTAADQARELINSWVESQTNGIIRNVLQPSSVDSQTAMVLVNAIVFKGLWEKAFKDEDTQAMPFRVTEQESKPVQMMYQIGLFRVASMASEKMKILELPFASGTMSMLVLLPDEVSGLEQLESIINFEKLTEWTSSNVMEERKIKVYLPRMKMEEKYNLTSVLMAMGITDVFSSSANLSGISSAESLKISQAVHAAHAEINEAGREVVGSAEAGVDAASVSEEFRADHPFLFCIKHIATNAVLFFGRCVSP
Consider B1, for which the “interaction with Sec61α (co-immunoprecipitation)” value in data set [1] is given as “interacts”. Also, the “interaction with Sec61β (co-immunoprecipitation)” value in data set [2] (BMDCs) and in data set [2] (DC2.4 cells incubated with bOVA) was “interacts” each time. Besides, the “interaction with PDI (co-immunoprecipitation)” value in data set [3] was “interacts”. Besides, the “interaction with TAP1 (co-immunoprecipitation)” value in data set [4] is “does not interact”. The “polyubiquitination of bOVA in CHIP-knocked-down cells” value in data set [5] amounted to 34%. Besides, the “uptake of bOVA into CHIP-knocked-down cells relative to parental DC2.4 cells” value in data set [6] is recorded as “about 70%”.
